The source of these data is paper PMC7312009, “SIRT7 Deacetylates STRAP to Regulate p53 Activity and Stability” (International Journal of Molecular Sciences, 2020).

The target in this assay is T1, Flag-tagged SIRT7 (UniProt Q9NRC8 1-400).
T1 construct: also called SIRT7 protein purified from 293T cells; source: purified from 293T cells; HEK293T, transfected, in lysate
T1 sequence (looked up): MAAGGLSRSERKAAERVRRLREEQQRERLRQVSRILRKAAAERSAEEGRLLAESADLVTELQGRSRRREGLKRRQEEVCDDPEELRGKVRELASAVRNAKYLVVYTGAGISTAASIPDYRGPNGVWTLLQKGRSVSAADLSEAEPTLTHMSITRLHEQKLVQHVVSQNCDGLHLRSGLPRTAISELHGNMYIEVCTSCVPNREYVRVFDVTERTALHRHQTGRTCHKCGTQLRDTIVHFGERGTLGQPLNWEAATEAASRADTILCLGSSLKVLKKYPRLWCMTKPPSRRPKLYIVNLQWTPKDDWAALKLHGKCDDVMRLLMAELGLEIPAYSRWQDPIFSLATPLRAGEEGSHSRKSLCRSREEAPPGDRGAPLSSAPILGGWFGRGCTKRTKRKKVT
Briefly: pull-down; 1 μg GST-STRAP fusion protein incubated with Flag-tagged SIRT7 purified from 293T cells in 100 μL BC100 at 4 °C overnight, then glutathione-sepharose beads 2 h; Western blotting. Particulars: both partners purified. On the technique in general: A western blot detects proteins with antibodies after separation by electrophoresis.

B1: GST-STRAP full length (natural protein, UniProt Q9Y3F4 1-350, looked up)
chain: MAMRQTPLTCSGHTRPVVDLAFSGITPYGYFLISACKDGKPMLRQGDTGDWIGTFLGHKGAVWGATLNKDATKAATAAADFTAKVWDAVSGDELMTLAHKHIVKTVDFTQDSNYLLTGGQDKLLRIYDLNKPEAEPKEISGHTSGIKKALWCSEDKQILSADDKTVRLWDHATMTEVKSLNFNMSVSSMEYIPEGEILVITYGRSIAFHSAVSLDPIKSFEAPATINSASLHPEKEFLVAGGEDFKLYKYDYNSGEELESYKGHFGPIHCVRFSPDGELYASGSEDGTLRLWQTVVGKTYGLWKCVLPEEDSGELAKPKIGFPETTEEELEEIASENSDCIFPSAPDVKA
notes: Serine-threonine kinase receptor-associated protein (STRAP), full length, subcloned into pGEX4T-3; also called GST-STRAP (FL); full-length STRAP (WT); source: purified GST fusion protein (pGEX4T-3)
As for B1, the binding result was “binds”.
